Experimental data: PMC8060482, “Identification of an Invertase With High Specific Activity for Raffinose Hydrolysis and Its Application in Soymilk Treatment” (Frontiers in Microbiology, 2021)

Columns and labels:
Assay in all cases: released glucose by glucose oxidase method; Michaelis-Menten fit
Assay type in all cases: biochemical, Microbacterium trichothecenolyticum
[1] = substrate: OC[C@H]1O[C@H](OC[C@H]2O[C@H](O[C@]3(CO)O[C@H](CO)[C@@H](O)[C@@H]3O)[C@H](O)[C@@H](O)[C@@H]2O)[C@H](O)[C@@H](O)[C@H]1O; conditions: 50 mM citrate-phosphate pH 6.5, 35 °C, 5 min
[2] = substrate: OC[C@H]1O[C@@](CO)(O[C@H]2O[C@H](CO)[C@@H](O)[C@H](O)[C@H]2O)[C@@H](O)[C@@H]1O; conditions: 50 mM citrate-phosphate pH 6.5, 35 °C, 5 min, enzyme printed as rInvDz13
[3] = substrate: OC[C@H]1O[C@H](OC[C@H]2O[C@H](OC[C@H]3O[C@H](O[C@]4(CO)O[C@H](CO)[C@@H](O)[C@@H]4O)[C@H](O)[C@@H](O)[C@@H]3O)[C@H](O)[C@@H](O)[C@H]2O)[C@H](O)[C@@H](O)[C@H]1O; conditions: 50 mM citrate-phosphate pH 6.5, 35 °C, 5 min

B1: InvDz13 (Microbacterium trichothecenolyticum) (protein)
chain: APVAPAAPELQDGPQPTAHTQQAYAPEDDFTAKWTRADARQLKRLSDPTAGSKQNSMPTELTMPAVAQDFPDMSNEQVWVWDSWPLTDENANQYSVNGQEIIFSLVADRNLVFDERHVFAKIGYFYRPAGVPADERPENGGWTYGGLVFDEGVTGKIFPDQSYSHQTQWSGSARISKGGQIKLFFTDVAFYRNEDGSNRKPYDPRIALSVGKVHANKNGVKLTGFDKVTDLLQADGTYYQTGAQNEFFNFRDPFTFEDPAHPGETYMVFEGNSAMPRETATCNEEDLGYREGDPFAESVEQVNASGATYQIGNVGLAKAKNKDLTEWEFLPPLLSANCVTDQTERPQIYMKDGKYYLFTISHRGTFANGIDGPEGVYGFVGDGIRSDYQPMNSGSGLALGNPTNLNFAGGQPFAPDFNQPIGHFQAYSHYVMPGGLVQSFIDTVGTEGDFRRGGTLAPTVKIDIDGASSAVDYAYGDGGLGGYADIPANINVNPGGKVTPLP
notes: natively purified from culture supernatant of strain Dz13 (DEAE-Sepharose, Sephacryl S100); precursor 537 aa, predicted signal peptide 1-35 (secreted enzyme); kinetics of sucrose printed once as rInvDz13, but no recombinant expression described
- Km [1]: 14.2 ± 0.7 mM
- kcat [1]: 3944 ± 15.3 s^–1
- Km [2]: 4.5 ± 0.2 mM
- kcat [2]: 504 ± 0.1 s^–1
- Km [3]: 65.2 ± 3.07 mM
- kcat [3]: 2368.3 ± 7.1 s^–1
